In paper doi:10.1101/2024.04.29.591313, “Discovery of a synthetic small molecule targeting the central regulator of Salmonella pathogenicity” (bioRxiv, 2024):

Target: the molecule itself
Assay: SEC-MALS; Superdex 75 Increase 10/300 GL; HilD (100 μM) incubated with 1% (v/v) DMSO or C26 (100 µM) for 20 min at room temperature; SEC buffer (50 mM NaH2PO4, pH 7.0, 200 mM NaCl); 0.5 ml/min

B1: HilD (natural protein)
chain: MENVTFVSNSHQRPAADNLQKLKSLLTNTRQQIKSQTQQVTIKNLYVSSFTLVCFRSGKLTISNNHDTIYCDEPGMLVLKKEQVVNVTLEEVNGHMDFDILEIPTQRLGALYALIPNEQQTKMAVPTEKAQKIFYTPDFPARREVFEHLKTAFSCTKDTSKGCSNCNNKSCIENEELIPYFLLFLLTAFLRLPESYEIILSSAQITLKERVYNIISSSPSRQWKLTDVADHIFMSTSTLKRKLAEEGTSFSDIYLSARMNQAAKLLRIGNHNVNAVALKCGYDSTSYFIQCFKKYFKTTPSTFIKMANH
notes: HilD, transcriptional regulator of Salmonella enterica serovar Typhimurium; the hilD gene was cloned into pET-24a(+) with an N-terminal His6-SUMO fusion; Dimer by SEC-MALS; 9 (printed only as an image); also called HilDWT; recombinant HilD; source: E. coli C41(DE3), purified (Ni-NTA, SUMO protease cleavage, second Ni-NTA, SEC Superdex 75); not shown: His6, N-terminal, cleaved; SUMO, N-terminal, …
stoichiometry N: 2
